Laboratory results published in patent US20120225437A1 (UNIVERSITY OF LEICESTER, published 2012).

Key:
[1] = target: T1, Rat MBL-A (mannan-binding lectin A) (rat, UniProt P19999 18-238); assay: SPR, MBL immobilised, CUB2 injected, 5 mM Ca2+
T1 construct: mature; It was immobilised on the SPR chip by amine coupling
Protocol: (§1) Data were fitted to a model in which there is a single Ca²⁺ site.
(§2) MBL (0.025 mg/ml) was immobilized onto the surface of a GLM sensor chip (˜10,000 response units) at pH 4.5, using amine-coupling chemistry. […] For inhibition assays, MBL was immobilized on to a CM-5 sensor chip (14,000 response units) and binding was measured on a Biacore® 2000 (GE Healthcare) in 20 mM Tris/HCl pH 7.4, containing 140 mM NaCl, 5 mM Ca²⁺, and 0.005% SP-20. […] Changes in response units caused by differences in sample composition were subtracted from all data. To account for changes in ionic strength of the buffer due to the inhibitor, binding was measured in the presence of equivalent concentrations of NaCl.

[2] = target: T1, Rat MBL-A (mannan-binding lectin A); assay: SPR, MBL immobilised, CUB2 at 20, 10, 5 and 2.5 µM, 1:1 model
Protocol: as §1, §2

B1: CUB2 domain of rat MASP-1/-3 (residues E165-A277 of the mature polypeptide, isoform 1) (other)
chain: CSGNLFTQRTGTITSPDYPNPYPKSSECSYTIDLEEGFMVTLQFEDIFDIEDHPEVPCPYDYIKIKAGSKVWGPFCGEKSPEPISTQSHSIQILFRSDNSGENRGWRLSYRA
notes: also called MASP-1 CUB2; rat MASP-1 CUB2
[1]
  Kd: 27 µM
[2]
  koff: 0.0035 s⁻¹
  kon: 131 M⁻¹ s⁻¹
